Measured values taken from the supplement of paper PMC9170038.

Tested on: MS2 coat protein
Assay: apparent KD of MS2 coat protein, switch ON state; designed switch direction (-1 OFF switch, 1 ON switch): -1; higher = weaker reporter binding
Details: FMN input: 0 or 200 uM; Eterna round: R93 (includes R88 designs)
In short: (§1)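 On-chip transcription from Illumina sequencing clusters produced the designed RNA switches. These were titrated with SNAP-549-labelled MS2 coat protein (twofold steps, 0.7 or 1.5 nM to 3 µM) in 100 mM Tris-HCl pH 7.5, 80 mM KCl, 4 mM MgCl2, with or without constant ligand. The apparent KD given is the per-design median of normalised cluster binding-curve fits.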

Sequence	apparent KD of MS2 coat protein
UACGUAUGAGGAUAUACAAACAGAAAAAUCAGACGUAAGUGACAUGAGGAUCACCCAUGUAGAAGGCAUAUGCA [JR_Exc002_Sub906]	26.9 nM
AAAUUGUCAGGAUAUCGUAUAACUGGGAAAACCAGGAGAUACGAGAAGGGACAUGAGGAUCACCCAUGUAAAAC [May 94]	51.6 nM
AAGAAACAUGAGGAUCACCCAUGUGAGGAUAUCGAAAAGAAAAGAAAAGAAAGAAGAAUGAGAAGGCACAAAGG [Shed—]	30.9 nM
AAAAACUGAGGAUAUACAUGAGGAUCACCCAUGUAAAAAAAAAAAAAGGGAAAAAAAAGUAGAAGGCAGAAAAA [Nebiriau II]	26.1 nM
AAAAAGGCAGGAUAUACGAGUCAAAGAAAAGACAAAAGGAAACAUGAGGAUCACCCAUGUAGAAGGGCCAAAAA [Fiskers exclusion D2 62% 6]	28.2 nM
GCAAAGUGAGGAUAUACGCGAACAAAAAAAAAAAAGAAAGCGUAGAAGGCACAUGAGGAUCACCCAUGUCCAGC [Alfred 64% 2]	23.5 nM
UAAAACUUAGGAUAUACAUGAGGAUCACCCAUGUCAAGACAAGGAAGGUCCUAAGCCGGUAGAAGGAAGAAAAU [Bexeora]	29.6 nM
AAGGAUCGAGGAUAUACAUAGAUACAGAUACAUGUAGACGUACAUGAGGAUCACCCAUGUAGAAGGCGAUCAUA [AJ 27]	150 nM
AAGAAUGGAGGAUAUACAUAAAAGAAAGAAAAGAAAAGAAAACAUGAGGAUCACCCAUGUAGAAGGCCAUAGAA [EteRNA is fun!]	24.6 nM
AGAUAGUCAGGAUAUACGAACAAGAAAAAAGACGAGAACGGACAUGAGGAUCACCCAUGUAGAAGGGACAAGAA [Diamond 12]	63 nM
AAAGGACGAGGAUAUACAUGAGGAUCACCCAUGUAAAAAACGUAAUAAAAUAACUUAUGUAGAAGGCGUCCAAA [Mat - Exclusion 3 - Eli mod - D98]	26.3 nM
GGAUGCCUAGGAUAUACAUGAGGAUCACCCAUGUGAGAGAAAAAAGUGAGAAAGAAAAGUAGAAGGAGGUGUCG [salish99-ex3-91]	38 nM
AGCUAGUCAGGAUAUACGAACAUGUCAGAAGACGUAAGGGAACAUGAGGAUCACCCAUGUAGAAGGGACUAGCA [Diamond 48]	33.1 nM
CCGAGACAUGAGGAUCACCCAUGUGAGGAUAUAGGUGUAUGCUAAAAAAAGUUAACAACUAGAAGGCACAGAGG [JR_Exc001_Sub308]	55.7 nM
UAAAGACAUGAGGAUCACCCAUGUGAGGAUAUUGGUGACUAUAAAAAAAAAUAGUCACCGAGAAGGCAUAGGAA [JR_Exc001_Sub302]	31 nM
AAGAACCAAGGAUAUACAAAAUAAAAGAAAAGAAAGAAAGAACAUGAGGAUCACCCAUGUAGAAGGUGGAAGAA [Khaankhre Sobekhotep]	47.7 nM
CUCAUGUCAGGAUAUAGCCACAUGAGGAUCACCCAUGUGGACUAGAAGGGACAUGAGGAUCACCCAUGUAUGAA	11 nM
AAGAACCAAGGAUAUACAUGAGGAUCACCCAUGUAAAAGAAAGAAGGGAAAGAGAAAAGUAGAAGGUGGAAGAA [Djedkaure Shebitku]	28.3 nM
AACAAACAUGAGGAUCACCCAUGUAAGGAUAUACGAAACAAACAAACAAACAAACAAAGUAGAAGGUACAGGAA [Exclusive 1]	17.3 nM

Tested on: MS2 coat protein
Assay: apparent KD of MS2 coat protein, switch OFF state (with FMN for OFF switches, without FMN for ON switches); designed switch direction (-1 OFF switch, 1 ON switch): -1; higher = weaker reporter binding
Details: FMN input: 0 or 200 uM; Eterna round: R93 (includes R88 designs)
In short: as §1

Sequence	apparent KD of MS2 coat protein
UACGUAUGAGGAUAUACAAACAGAAAAAUCAGACGUAAGUGACAUGAGGAUCACCCAUGUAGAAGGCAUAUGCA [JR_Exc002_Sub906]	19.7 nM
AAAUUGUCAGGAUAUCGUAUAACUGGGAAAACCAGGAGAUACGAGAAGGGACAUGAGGAUCACCCAUGUAAAAC [May 94]	65.8 nM
AAGAAACAUGAGGAUCACCCAUGUGAGGAUAUCGAAAAGAAAAGAAAAGAAAGAAGAAUGAGAAGGCACAAAGG [Shed—]	29.8 nM
AAAAACUGAGGAUAUACAUGAGGAUCACCCAUGUAAAAAAAAAAAAAGGGAAAAAAAAGUAGAAGGCAGAAAAA [Nebiriau II]	41 nM
AAAAAGGCAGGAUAUACGAGUCAAAGAAAAGACAAAAGGAAACAUGAGGAUCACCCAUGUAGAAGGGCCAAAAA [Fiskers exclusion D2 62% 6]	16.7 nM
GCAAAGUGAGGAUAUACGCGAACAAAAAAAAAAAAGAAAGCGUAGAAGGCACAUGAGGAUCACCCAUGUCCAGC [Alfred 64% 2]	25.1 nM
UAAAACUUAGGAUAUACAUGAGGAUCACCCAUGUCAAGACAAGGAAGGUCCUAAGCCGGUAGAAGGAAGAAAAU [Bexeora]	25.4 nM
AAGGAUCGAGGAUAUACAUAGAUACAGAUACAUGUAGACGUACAUGAGGAUCACCCAUGUAGAAGGCGAUCAUA [AJ 27]	255 nM
AAGAAUGGAGGAUAUACAUAAAAGAAAGAAAAGAAAAGAAAACAUGAGGAUCACCCAUGUAGAAGGCCAUAGAA [EteRNA is fun!]	15.3 nM
AGAUAGUCAGGAUAUACGAACAAGAAAAAAGACGAGAACGGACAUGAGGAUCACCCAUGUAGAAGGGACAAGAA [Diamond 12]	37 nM
AAAGGACGAGGAUAUACAUGAGGAUCACCCAUGUAAAAAACGUAAUAAAAUAACUUAUGUAGAAGGCGUCCAAA [Mat - Exclusion 3 - Eli mod - D98]	214 nM
GGAUGCCUAGGAUAUACAUGAGGAUCACCCAUGUGAGAGAAAAAAGUGAGAAAGAAAAGUAGAAGGAGGUGUCG [salish99-ex3-91]	92.4 nM
AGCUAGUCAGGAUAUACGAACAUGUCAGAAGACGUAAGGGAACAUGAGGAUCACCCAUGUAGAAGGGACUAGCA [Diamond 48]	75 nM
CCGAGACAUGAGGAUCACCCAUGUGAGGAUAUAGGUGUAUGCUAAAAAAAGUUAACAACUAGAAGGCACAGAGG [JR_Exc001_Sub308]	129 nM
UAAAGACAUGAGGAUCACCCAUGUGAGGAUAUUGGUGACUAUAAAAAAAAAUAGUCACCGAGAAGGCAUAGGAA [JR_Exc001_Sub302]	42.4 nM
AAGAACCAAGGAUAUACAAAAUAAAAGAAAAGAAAGAAAGAACAUGAGGAUCACCCAUGUAGAAGGUGGAAGAA [Khaankhre Sobekhotep]	41.6 nM
CUCAUGUCAGGAUAUAGCCACAUGAGGAUCACCCAUGUGGACUAGAAGGGACAUGAGGAUCACCCAUGUAUGAA	11.3 nM
AAGAACCAAGGAUAUACAUGAGGAUCACCCAUGUAAAAGAAAGAAGGGAAAGAGAAAAGUAGAAGGUGGAAGAA [Djedkaure Shebitku]	22.7 nM
AACAAACAUGAGGAUCACCCAUGUAAGGAUAUACGAAACAAACAAACAAACAAACAAAGUAGAAGGUACAGGAA [Exclusive 1]	16.3 nM
